Experimental data taken from patent US20090226437A1 (Genentech, published 2009).
Where a chain is given by its changes, count along the chain named.

B1: Variant hu504.16, IgG (antibody, name in Kabat numbering, V domains shown)
VH: EVQLVESGGGLVQPGGSLRLSCAASGFFITNNYWGWVRQAPGKGLEWVGYISYSGSTSYNPSLKSRFTISRDTSKNTFYLQMNSLRAEDTAVYYCAMTGSSGYFDFWGQGTLVTVSS
VL: DIQMTQSPSSLSASVGDRVTITCRASESVDTLLHWYQQKPGKAPKLLIKYASQSISGVPSRFSGSGSGTDFTLTISSLQPEDFATYYCQQGNSLPNTFGQGTKVEIKR
B2: Variant hu504.5, IgG (antibody, name in Kabat numbering, V domains shown)
VH: B1 VH
VL: B1 VL with T31S
B3: Rat Fib504 (antibody FIB504.64 produced by hybridoma ATCC HB-293) (antibody, V domains shown)
VH: EVQLQESGPGLVKPSQSLSLTCSVTGFFITNNYWGWIRKFPGNKMEWMGYISYSGSTSYNPSLKSRISITRDTSKNQFFLQLNSVTTEDTATYYCAMTGSSGYFDFWGPGTMVTVSS
VL: DVVMTQSPATLSVTPGERISLSCRASESVDTYLHWYQQKPNESPRLLIKYASQSISGIPSRFSGSGSGTDFTLSINGVELEDLSIYYCQQGNSLPNTFGAGTKLELKR
notes: Whole rat antibody in the cell adhesion assays; also called rat anti-mouse beta7 antibody
B4: Variant hu504.32, IgG (antibody, V domains shown)
VH: B1 VH
VL: B1 VL with T31D
notes: methionine at heavy chain position 94; also called hu504.32M; 504.32M

These binders were tested against T1, human alpha4beta7 receptor on RPMI8866 cells (human, UniProt P13612 34-1032; P26010 20-798) (assay: cell adhesion inhibition, RPMI8866 cells on coated 7dVCAM-1, Exp 2).
T1 construct: whole, on cells; also called alpha4beta7 on RPMI8866
T1 sequence (P13612 34-1032, chain 1 of 2): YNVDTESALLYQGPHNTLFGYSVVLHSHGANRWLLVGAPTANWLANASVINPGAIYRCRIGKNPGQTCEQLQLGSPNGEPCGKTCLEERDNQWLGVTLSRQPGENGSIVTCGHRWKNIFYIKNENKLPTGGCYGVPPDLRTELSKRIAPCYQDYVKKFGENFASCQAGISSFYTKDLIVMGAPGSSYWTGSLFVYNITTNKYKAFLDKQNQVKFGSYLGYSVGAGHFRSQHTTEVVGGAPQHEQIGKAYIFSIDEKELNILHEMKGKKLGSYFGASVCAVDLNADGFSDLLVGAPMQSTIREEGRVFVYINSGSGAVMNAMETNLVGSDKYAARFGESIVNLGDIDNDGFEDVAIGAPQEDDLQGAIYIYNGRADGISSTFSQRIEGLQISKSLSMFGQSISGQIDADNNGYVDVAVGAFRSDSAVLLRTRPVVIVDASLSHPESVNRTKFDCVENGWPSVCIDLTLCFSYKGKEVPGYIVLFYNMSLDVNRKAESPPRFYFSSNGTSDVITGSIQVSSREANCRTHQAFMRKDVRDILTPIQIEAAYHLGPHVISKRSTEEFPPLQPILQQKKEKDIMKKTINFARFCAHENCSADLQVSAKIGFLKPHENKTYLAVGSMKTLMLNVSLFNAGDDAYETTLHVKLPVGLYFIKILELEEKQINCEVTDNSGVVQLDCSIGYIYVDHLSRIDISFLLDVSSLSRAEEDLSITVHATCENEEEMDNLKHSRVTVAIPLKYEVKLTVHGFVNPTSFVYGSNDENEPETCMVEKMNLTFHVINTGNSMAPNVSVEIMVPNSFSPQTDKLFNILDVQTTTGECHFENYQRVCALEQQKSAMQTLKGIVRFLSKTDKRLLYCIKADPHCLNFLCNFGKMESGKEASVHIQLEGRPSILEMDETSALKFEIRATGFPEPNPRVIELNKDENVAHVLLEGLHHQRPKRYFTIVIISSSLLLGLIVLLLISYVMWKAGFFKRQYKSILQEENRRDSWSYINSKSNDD
T1 sequence (P26010 20-798, chain 2 of 2): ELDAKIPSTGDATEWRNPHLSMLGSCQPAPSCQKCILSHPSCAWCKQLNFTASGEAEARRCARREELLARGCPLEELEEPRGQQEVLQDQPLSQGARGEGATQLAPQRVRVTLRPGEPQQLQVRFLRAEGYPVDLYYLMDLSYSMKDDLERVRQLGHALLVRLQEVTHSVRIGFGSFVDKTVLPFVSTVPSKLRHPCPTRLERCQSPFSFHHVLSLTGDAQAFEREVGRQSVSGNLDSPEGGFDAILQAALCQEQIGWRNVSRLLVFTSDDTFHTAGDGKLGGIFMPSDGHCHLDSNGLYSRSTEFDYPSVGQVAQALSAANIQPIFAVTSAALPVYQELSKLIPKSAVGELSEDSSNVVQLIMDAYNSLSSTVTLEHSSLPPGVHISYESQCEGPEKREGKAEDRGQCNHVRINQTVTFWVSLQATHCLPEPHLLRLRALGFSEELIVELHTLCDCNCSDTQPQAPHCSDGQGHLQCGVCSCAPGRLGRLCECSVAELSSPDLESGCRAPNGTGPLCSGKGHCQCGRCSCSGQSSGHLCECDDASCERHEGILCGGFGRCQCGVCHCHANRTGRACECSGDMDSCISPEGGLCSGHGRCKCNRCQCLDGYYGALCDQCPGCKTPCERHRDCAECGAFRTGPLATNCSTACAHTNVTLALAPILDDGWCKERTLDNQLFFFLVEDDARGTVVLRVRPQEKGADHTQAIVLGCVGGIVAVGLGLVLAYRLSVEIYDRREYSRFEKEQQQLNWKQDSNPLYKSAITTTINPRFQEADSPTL
Description: (§1) RPMI8866/MAdCAM-1-Ig Cell Adhesion: RPMI8866 cells express alpha4beta7 on their surface (Roswell Park Memorial Institute, Buffalo, N.Y.). Humanized Fib504 variants (hu504 variants) were contacted with a mixture of RMPI8866 cells and MAdCAM fused to IgG coated on a solid support. […] After blocking the plates with 200 ul/well of 5 mg/ml BSA for one hour at room temperature, 50 μl of humanized Fib504 variants in assay media (RPMI 1640 media, Hyclone®, Logan Utah, USA, supplemented with 5 mg/mL BSA) were added to each well and 150,000 BCECF-labeled cells (BCECF, Molecular Probes, Eugene, Oreg.) in 50 μl of assay media were added to each well and incubated for 15 minutes at 37° C. The wells were washed two times with 150 μl of assay media to remove unbound cells. The bound cells were solubilized with 100 μl of 0.1% SDS in 50 mM Tris/HCl pH7.5. The amount of fluorescence released from lysed cells was measured by SPECTRAmax GEMINI™ (Molecular Devices, Sunnyvale, Calif.) at 485 nm excitation 530 nm emission wavelengths. The fluorescence values were analyzed as a function of the concentrations of the humanized Fib504 variants added in each assay, using a four-parameter nonlinear least squares fit, to obtain the IC₅₀ values of each humanized Fib504 variant in the assay. IC₅₀ and IC₉₀ values were estimated from the four-parameter fit. FIG. 14 is an exemplary plot of the results. The IC₉₀ and IC₅₀ values for each of the variants tested are shown below in Table 4.
(§2) RPMI8866/7dVCAM-1 Cell Adhesion: The RPMI8866/7dVCAM-1 assay is similar format to the RPMI8866/MAdCAM-1-Ig except that 7dVCAM-1 (ADP5, R&D Systems, Minneapolis, Minn.) was used at 2 ug/ml to coat plates. The results were analyzed as described above for the MAdCAM binding experiments. The IC₅₀ values for each of the variants tested are shown below in Table 5.

Question: How did the IC50 turn out when B1 was run?
Answer: 0.223 nM

Question: What about the IC90 of the same binder?
Answer: 0.774 nM

Question: For B2, which IC50 is on record?
Answer: 0.27 nM

Question: And the IC90?
Answer: 0.726 nM

Question: B3 was tested. Which IC50 did it give?
Answer: 0.193 nM

Question: And the IC90?
Answer: 0.58 nM

Each binder was assayed against T1, human alpha4beta7 receptor on RPMI8866 … (assay: cell adhesion inhibition, RPMI8866 cells on coated MAdCAM-1-Ig, Exp 2).
Description: as §1

Question: For B1, which IC50 is on record?
Answer: 0.206 nM

Question: And the IC90?
Answer: 0.551 nM

Question: B2 was tested. Which IC50 did it give?
Answer: 0.248 nM

Question: What about the IC90 of the same binder?
Answer: 0.88 nM

Question: What does the source list for B3?
Answer: IC50: 0.197 nM; IC90: 0.703 nM

What follows are binders tested against T2, alphaEbeta7 on alphaEbeta7-transfected 293 cells (human, UniProt P38570 19-1179; P26010 20-798) (assay: cell adhesion inhibition, alphaEbeta7 293 cells on coated huE-Cadherin, experiment 1 of 3).
T2 construct: whole, on cells; also called alphaEbeta7 293 cells
T2 sequence (P38570 19-1179, chain 1 of 2): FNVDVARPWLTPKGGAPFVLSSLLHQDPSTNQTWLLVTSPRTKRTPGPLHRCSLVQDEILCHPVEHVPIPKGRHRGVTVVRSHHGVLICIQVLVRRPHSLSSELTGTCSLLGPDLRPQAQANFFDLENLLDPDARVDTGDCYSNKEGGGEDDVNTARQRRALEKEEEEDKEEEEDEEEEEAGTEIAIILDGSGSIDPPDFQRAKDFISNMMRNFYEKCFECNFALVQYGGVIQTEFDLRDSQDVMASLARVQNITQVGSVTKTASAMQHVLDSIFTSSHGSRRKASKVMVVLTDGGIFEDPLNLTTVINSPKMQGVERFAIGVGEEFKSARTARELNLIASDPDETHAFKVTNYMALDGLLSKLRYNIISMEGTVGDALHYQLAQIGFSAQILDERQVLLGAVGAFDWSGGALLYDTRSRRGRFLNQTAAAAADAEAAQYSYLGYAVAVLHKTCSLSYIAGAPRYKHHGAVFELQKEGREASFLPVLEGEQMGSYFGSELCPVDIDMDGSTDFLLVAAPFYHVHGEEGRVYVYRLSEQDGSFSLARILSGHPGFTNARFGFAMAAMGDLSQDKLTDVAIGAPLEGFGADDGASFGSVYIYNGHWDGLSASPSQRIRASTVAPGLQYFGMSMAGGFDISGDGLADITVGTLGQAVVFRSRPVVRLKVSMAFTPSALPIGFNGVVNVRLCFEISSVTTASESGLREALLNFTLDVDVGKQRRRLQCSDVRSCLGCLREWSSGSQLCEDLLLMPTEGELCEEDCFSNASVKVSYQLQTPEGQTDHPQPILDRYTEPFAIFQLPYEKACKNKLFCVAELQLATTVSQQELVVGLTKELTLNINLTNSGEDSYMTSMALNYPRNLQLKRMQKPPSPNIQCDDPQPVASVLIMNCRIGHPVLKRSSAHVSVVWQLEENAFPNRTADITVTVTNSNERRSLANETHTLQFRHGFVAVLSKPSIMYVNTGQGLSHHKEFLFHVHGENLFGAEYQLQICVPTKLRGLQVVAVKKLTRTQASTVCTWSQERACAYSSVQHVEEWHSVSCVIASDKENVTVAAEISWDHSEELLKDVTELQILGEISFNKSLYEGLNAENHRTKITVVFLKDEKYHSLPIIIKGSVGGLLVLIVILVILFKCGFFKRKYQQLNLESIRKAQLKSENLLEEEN
T2 sequence (P26010 20-798, chain 2 of 2): as the sequence (P26010 20-798, chain 2 of 2) above
Description: (§3) After blocking the plates with 200 ul/well of 5 mg/ml BSA for one hour at room temperature, 50 μl of humanized Fib504 variants in assay media (RPMI 1640 media, Hyclone®, Logan Utah, USA, supplemented with 5 mg/mL BSA) were added to each well and 150,000 BCECF-labeled cells (BCECF, Molecular Probes, Eugene, Oreg.) in 50 μl of assay media were added to each well and incubated for 15 minutes at 37° C. The wells were washed two times with 150 μl of assay media to remove unbound cells. The bound cells were solubilized with 100 μl of 0.1% SDS in 50 mM Tris/HCl pH7.5. The amount of fluorescence released from lysed cells was measured by SPECTRAmax GEMINI™ (Molecular Devices, Sunnyvale, Calif.) at 485 nm excitation 530 nm emission wavelengths. The fluorescence values were analyzed as a function of the concentrations of the humanized Fib504 variants added in each assay, using a four-parameter nonlinear least squares fit, to obtain the IC₅₀ values of each humanized Fib504 variant in the assay. IC₅₀ and IC₉₀ values were estimated from the four-parameter fit. FIG. 14 is an exemplary plot of the results. The IC₉₀ and IC₅₀ values for each of the variants tested are shown below in Table 4.
(§4) The assay format is similar to the RPMI8866/MAdCAM-1-Ig assay except that the huE-Cadherin (648-EC, R&D Systems, Minneapolis, Minn.) was used at 2 μg/ml to coat the plates. Plates were then blocked with 5 mg/ml BSA as mentioned above and 50 μl of FIB504 variants in assay media (F-12:DMEM (50:50) supplemented with 5 mg/ml BSA) were add to each well and 110,000 BCECF labeled cells in 50 ul of assay media were added to each well and incubated for 15 minutes at 37° C. The wells were washed two times with 150 μl of assay media and the amount of fluorescence released by lysed cells was measured and analyzed as described above.

Question: How did the IC50 turn out when B4 was run?
Answer: 1.81 nM

Question: What about the IC90 of the same binder?
Answer: 8.8 nM

Question: Which results are given for B1?
Answer: IC50: 1.96 nM; IC90: 7.03 nM

Question: How did the IC50 turn out when B2 was run?
Answer: 2.13 nM

Question: And the IC90?
Answer: 7.99 nM

Question: What does the source list for B3?
Answer: IC50: 2.05 nM; IC90: 8.8 nM

These binders were tested against T3, alpha4beta7 on 38C13 alpha4+ murine lymphoma cells transfected with integrin beta7 (38C13beta7 cells) (murine, UniProt Q00651 41-1039; P26011 20-806) (assay: cell adhesion inhibition, 38C13beta7 cells on coated muMAdCAM-1-Ig, experiment 1 of 2).
T3 construct: whole, on cells; also called 38C13-beta7 expressing cells; murine beta7-containing receptor
T3 sequence (Q00651 41-1039, chain 1 of 2): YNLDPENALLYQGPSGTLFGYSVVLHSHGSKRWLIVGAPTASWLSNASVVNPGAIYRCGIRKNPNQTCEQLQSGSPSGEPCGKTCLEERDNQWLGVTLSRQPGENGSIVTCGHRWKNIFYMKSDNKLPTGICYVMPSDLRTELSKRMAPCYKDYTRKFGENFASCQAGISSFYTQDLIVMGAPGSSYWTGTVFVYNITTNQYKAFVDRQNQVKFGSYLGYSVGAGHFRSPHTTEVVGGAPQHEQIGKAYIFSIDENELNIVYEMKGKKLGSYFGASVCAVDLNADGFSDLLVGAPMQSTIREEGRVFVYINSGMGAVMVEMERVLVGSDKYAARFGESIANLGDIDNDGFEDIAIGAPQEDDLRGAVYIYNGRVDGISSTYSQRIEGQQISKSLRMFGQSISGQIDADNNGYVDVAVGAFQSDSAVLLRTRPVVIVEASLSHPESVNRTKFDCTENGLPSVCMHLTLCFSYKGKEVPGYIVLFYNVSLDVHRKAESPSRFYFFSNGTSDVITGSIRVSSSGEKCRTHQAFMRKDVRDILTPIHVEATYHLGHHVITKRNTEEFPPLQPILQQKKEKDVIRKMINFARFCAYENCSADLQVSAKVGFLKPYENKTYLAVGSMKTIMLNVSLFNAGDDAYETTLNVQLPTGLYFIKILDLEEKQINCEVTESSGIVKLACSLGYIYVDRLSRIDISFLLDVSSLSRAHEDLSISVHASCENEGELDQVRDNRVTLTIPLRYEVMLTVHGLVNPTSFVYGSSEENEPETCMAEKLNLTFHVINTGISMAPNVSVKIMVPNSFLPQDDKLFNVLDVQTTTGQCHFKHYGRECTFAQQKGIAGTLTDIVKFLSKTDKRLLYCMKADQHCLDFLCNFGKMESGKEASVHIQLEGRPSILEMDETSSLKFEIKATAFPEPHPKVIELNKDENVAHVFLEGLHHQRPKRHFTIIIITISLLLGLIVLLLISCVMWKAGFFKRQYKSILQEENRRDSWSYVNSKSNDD
T3 sequence (P26011 20-806, chain 2 of 2): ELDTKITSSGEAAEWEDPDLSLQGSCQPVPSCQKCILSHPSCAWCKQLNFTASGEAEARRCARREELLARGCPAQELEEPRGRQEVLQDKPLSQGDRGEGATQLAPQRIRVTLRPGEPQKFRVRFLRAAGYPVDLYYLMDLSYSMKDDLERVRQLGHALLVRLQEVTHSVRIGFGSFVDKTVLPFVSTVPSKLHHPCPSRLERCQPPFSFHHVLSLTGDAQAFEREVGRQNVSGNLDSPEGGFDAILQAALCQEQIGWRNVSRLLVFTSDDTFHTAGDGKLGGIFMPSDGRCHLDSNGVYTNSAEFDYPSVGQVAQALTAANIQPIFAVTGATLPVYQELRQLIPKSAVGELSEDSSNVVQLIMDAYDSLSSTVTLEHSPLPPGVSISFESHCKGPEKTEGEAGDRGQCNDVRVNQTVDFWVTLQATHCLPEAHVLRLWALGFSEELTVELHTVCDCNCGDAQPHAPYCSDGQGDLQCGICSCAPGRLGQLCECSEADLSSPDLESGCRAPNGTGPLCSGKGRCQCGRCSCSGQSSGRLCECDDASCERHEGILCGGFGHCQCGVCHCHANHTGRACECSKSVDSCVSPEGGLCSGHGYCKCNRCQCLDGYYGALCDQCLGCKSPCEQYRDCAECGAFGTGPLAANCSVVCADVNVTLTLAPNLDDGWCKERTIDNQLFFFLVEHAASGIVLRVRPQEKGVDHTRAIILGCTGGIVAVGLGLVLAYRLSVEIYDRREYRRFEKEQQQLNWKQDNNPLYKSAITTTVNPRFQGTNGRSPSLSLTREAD
Description: as §1
(§5) 38C13beta7/muMAdCAM-1-Ig Cell Adhesion Assay: The 38C13beta7/muMAdCAM-1-Ig assay was similar format to the RPMI8866/MAdCAM-1-Ig except that muMAdCAM-1-Ig (Genentech, Inc.) was used at 2 μg/ml to coat plates. 38C13 alpha4+ murine lymphoma cells (Crowe, D. T. et al., J. Biol. Chem. 269:14411-14418 (1994)) were transfected with DNA encoding integrin beta7 such that alpha4beta7 was expressed on the cell surface. The ability of the antibodies variants to disrupt interaction between the cell membrane associated alpha4beta7 and MAdCAM was performed as above.

Question: How did the IC50 turn out when B4 was run?
Answer: 0.718 nM

Question: What about the IC90 of the same binder?
Answer: 4.08 nM

Question: How did the IC50 turn out when B1 was run?
Answer: 0.998 nM

Question: What about the IC90 of the same binder?
Answer: 3.72 nM

Question: B2 was tested. Which IC50 did it give?
Answer: 0.859 nM

Question: What about the IC90 of the same binder?
Answer: 2.32 nM

Question: With B3 as the binder, how does the IC50 read?
Answer: 0.682 nM

Question: What about the IC90 of the same binder?
Answer: 2.87 nM

Each binder was assayed against T2, alphaEbeta7 on alphaEbeta7-transfected … (assay: cell adhesion inhibition, alphaEbeta7 293 cells on coated huE-Cadherin, experiment 2 of 3).
Description: as §3, §4

Question: Which results are given for B4?
Answer: IC50: 6.99 nM; IC90: 24.5 nM

Question: How did the IC50 turn out when B1 was run?
Answer: 10.1 nM

Question: What about the IC90 of the same binder?
Answer: 33.7 nM

Question: B2 was tested. Which IC50 did it give?
Answer: 10.2 nM

Question: And the IC90?
Answer: 28.7 nM

Question: Which IC50 does the source give for B3 here?
Answer: 7.89 nM

Question: What about the IC90 of the same binder?
Answer: 24.5 nM

Each binder was assayed against T1, human alpha4beta7 receptor on RPMI8866 … (assay: cell adhesion inhibition, RPMI8866 cells on coated MAdCAM-1-Ig, Exp 1).
Description: as §1

Question: Which results are given for B1?
Answer: IC50: 0.0768 nM; IC90: 0.244 nM

Question: Which IC50 does the source give for B2 here?
Answer: 0.067 nM

Question: And the IC90?
Answer: 0.361 nM

Question: Which results are given for B3?
Answer: IC50: 0.098 nM; IC90: 0.483 nM

Each binder was assayed against T2, alphaEbeta7 on alphaEbeta7-transfected … (assay: cell adhesion inhibition, alphaEbeta7 293 cells on coated huE-Cadherin, experiment 3 of 3).
Description: as §3, §4

Question: With B4 as the binder, how does the IC50 read?
Answer: 3.47 nM

Question: What about the IC90 of the same binder?
Answer: 11.7 nM

Question: Which results are given for B1?
Answer: IC50: 4.58 nM; IC90: 13.5 nM

Question: Which results are given for B2?
Answer: IC50: 4.77 nM; IC90: 10.2 nM

Question: With B3 as the binder, how does the IC50 read?
Answer: 4.19 nM

Question: What about the IC90 of the same binder?
Answer: 9.95 nM

Each binder was assayed against T3, alpha4beta7 on 38C13 alpha4+ murine … (assay: cell adhesion inhibition, 38C13beta7 cells on coated muMAdCAM-1-Ig, experiment 2 of 2).
Description: as §1, §5

Question: Which IC50 does the source give for B4 here?
Answer: 0.458 nM

Question: And the IC90?
Answer: 1.51 nM

Question: For B1, which IC50 is on record?
Answer: 0.61 nM

Question: What about the IC90 of the same binder?
Answer: 4.08 nM

Question: Which results are given for B2?
Answer: IC50: 0.466 nM; IC90: 2.61 nM

Question: B3 was tested. Which IC50 did it give?
Answer: 0.306 nM

Question: What about the IC90 of the same binder?
Answer: 1.51 nM

The binders below were run against T1, human alpha4beta7 receptor on RPMI8866 … (assay: cell adhesion inhibition, RPMI8866 cells on coated 7dVCAM-1, Exp 1).
Description: as §1, §2

Question: What does the source list for B1?
Answer: IC50: 0.098 nM; IC90: 0.261 nM

Question: For B2, which IC50 is on record?
Answer: 0.088 nM

Question: What about the IC90 of the same binder?
Answer: 0.396 nM

Question: What does the source list for B3?
Answer: IC50: 0.107 nM; IC90: 0.396 nM

The binders below were run against T3, alpha4beta7 on 38C13 alpha4+ murine … (assay: cell adhesion inhibition, 38C13beta7 cells on coated muVCAM-1-Ig, experiment 2 of 2).
Description: as §1
(§6) 38C13beta7/muVCAM-1-Ig Cell Adhesion Assay: The 38C13beta7/muVCAM-1-Ig assay was performed according to the murine MAdCAM-1-Ig/RPMI8866 cell binding assay above, except that muVCAM-1-Ig (Genentech, Inc.) was used at 2 μg/ml to coat plates. (IC₅₀ and IC₉₀ values for 2 experiments are shown).

Question: Which IC50 does the source give for B4 here?
Answer: 0.33 nM

Question: And the IC90?
Answer: 1.84 nM

Question: Which IC50 does the source give for B1 here?
Answer: 0.584 nM

Question: And the IC90?
Answer: 1.84 nM

Question: What does the source list for B2?
Answer: IC50: 0.407 nM; IC90: 2.3 nM

Question: For B3, which IC50 is on record?
Answer: 0.447 nM

Question: What about the IC90 of the same binder?
Answer: 2.3 nM

What follows are binders tested against T3, alpha4beta7 on 38C13 alpha4+ murine … (assay: cell adhesion inhibition, 38C13beta7 cells on coated muVCAM-1-Ig, experiment 1 of 2).
Description: as §1, §6

Question: How did the IC50 turn out when B4 was run?
Answer: 0.562 nM

Question: What about the IC90 of the same binder?
Answer: 2 nM

Question: Which IC50 does the source give for B1 here?
Answer: 0.835 nM

Question: What about the IC90 of the same binder?
Answer: 2.86 nM

Question: What does the source list for B2?
Answer: IC50: 0.763 nM; IC90: 3.07 nM

Question: For B3, which IC50 is on record?
Answer: 0.845 nM

Question: And the IC90?
Answer: 2.9 nM
